Assay results reported in the supplement of paper PMC10899765.

How the values were obtained:
Details in all cases: 20 nM; 72 h
MCF10A [1] = experiment: percent viability (nuclei count relative to siNT); higher = more viable cells
Procedure: (§1)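 After 72 h, cells were fixed and stained with Hoechst and anti-fibrillarin, and nucleoli per nucleus were counted with CellProfiler. Values are plate-adjusted percent effect for the one-nucleolus and 5+ nucleoli phenotypes, normalised to siNT (0%) and to the positive controls siNOL11 or siKIF11 (100%), as the mean of biological triplicates. Percent viability is the nuclei count relative to siNT.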

MCF10A [2] = experiment: one-nucleolus phenotype percent effect (relative to siNT 0% and siNOL11 100%); higher = more cells with one nucleolus (ribosome biogenesis inhibition)
Procedure: as §1

MCF10A [3] = experiment: 5+ nucleoli phenotype percent effect (relative to siNT 0% and siKIF11 100%); higher = more cells with five or more nucleoli
Procedure: as §1

| Sequence | percent viability (MCF10A [1]) [%] | one-nucleolus phenotype percent effect (MCF10A [2]) [%] | 5+ nucleoli phenotype percent effect (MCF10A [3]) [%] |
| --- | --- | --- | --- |
| GGGGGGGGGGGGGGGGGGCCG [hsa-miR-1234-5p] | 78.1 | -31.5 | 65.1 |
| GGGGGGUGUGGAGCCAGGGGGC [hsa-miR-6752-5p] | 79.1 | -21.9 | 41.7 |
| GGGGGUCCCCGGUGCUCGGAUC [hsa-miR-615-5p] | 137 | -20 | 33.1 |
| GGGGUAUUGUUUCCGCUGCCAGG [hsa-miR-503-3p] | 40.1 | 39 | -25.1 |
| GGGGUGGUCUGUUGUUG [hsa-miR-4483] | 5.44 | -25.2 | 44.6 |
| GGGGUUCCUGGGGAUGGGAUUU [hsa-miR-23a-5p] | 103 | -14 | 40.3 |
| GGGUCCCGGGGAGGGGGG [hsa-miR-4281] | 100 | -17.2 | 25.6 |
| GGGUGAGGGCAGGUGGUU [hsa-miR-4710] | 19.2 | 17.1 | 22.2 |
| GGGUGCGGGCCGGCGGGG [hsa-miR-4466] | 51.3 | -13.2 | 12.7 |
| GGGUGGGGAUUUGUUGCAUUAC [hsa-miR-92a-2-5p] | 42.2 | 28.3 | -28.2 |
| GGGUUUGUAGCUUUGCUGGCAUG [hsa-miR-5087] | 26.6 | 4.68 | 6.11 |
| GGUAGAUUUUCCUUCUAUGGU [hsa-miR-376a-2-5p] | 71.5 | -26.7 | 62 |
| GGUAGUGAGUUAUCAGCUAC [hsa-miR-6073] | 71 | 2.63 | 18.3 |
| GGUAUCCGUUUGGGGAUGGU [hsa-miR-3713] | 23.5 | 11.4 | -27.6 |
| GGUCCAGAGGGGAGAUAGGUUC [hsa-miR-198] | 51.6 | -9.26 | 5.19 |
| GGUCGUAUGUGUGACGCCAUUU [hsa-miR-489-5p] | 63 | -3.74 | -3.91 |
| GGUCUAGGCCCGGUGAGAGACUC [hsa-miR-8078] | 21 | -3.5 | 10 |
| GGUGAGGCUAGCUGGUG [hsa-miR-4316] | 41.7 | 13.5 | -8.12 |
| GGUGCAGUGCUGCAUCUCUGGU [hsa-miR-143-5p] | 89.5 | -7.79 | -0.693 |
| GGUGGAUAUUCCUUCUAUGUU [hsa-miR-376c-5p] | 20.7 | 21.9 | -0.73 |
| GGUGGCCCGGCCGUGCCUGAGG [hsa-miR-663b] | 124 | -23.6 | 47.3 |
| GGUGGGAUGGAGAGAAGGUAUGAG [hsa-miR-4769-5p] | 77.6 | -13.3 | 33.7 |
| GGUGGGCUUCCCGGAGGG [hsa-miR-4417] | 77.8 | -24.2 | 35.5 |
| GGUGGGGCAAUGGGAUCAGGU [hsa-miR-3151] | 33.9 | -3.87 | 9.32 |

| Sequence | percent viability (MCF10A [1]) [%] | one-nucleolus phenotype percent effect (MCF10A [2]) [%] | 5+ nucleoli phenotype percent effect (MCF10A [3]) [%] |
| --- | --- | --- | --- |
| GGUGGGGGCUGUUGUUU [hsa-miR-4447] | 24.5 | 38.7 | -20.8 |
| GGUGGGGGGUGUUGUUUU [hsa-miR-4472] | 40 | 9.55 | 11.6 |
| GGUGGUUGAGGCUGCAGUAAGU [hsa-miR-1273g-5p] | 49.2 | -13.4 | 22.4 |
| GGUUCCCUCUCCAAAUGUGUCU [hsa-miR-642b-5p] | 44.4 | 11.8 | 21.2 |
| GGUUCUUAGCAUAGGAGGUCU [hsa-miR-2116-5p] | 35.2 | 12.8 | -5.52 |
| GGUUGGGCAGUGAGGAGGGUGUGA [hsa-miR-3147] | 26 | -13.3 | 31 |
| GUAAGCAGGGGCUCUGGGUGA [hsa-miR-6792-5p] | 30.2 | 56.4 | -36.8 |
| GUAAGGGACCGGAGAGUAGGA [hsa-miR-6892-5p] | 22.3 | 20.5 | -29 |
| GUACCUUCUGGUUCAGCUAGU [hsa-miR-4724-3p] | 82.8 | -22.1 | 19.8 |
| GUAGAGGAGAUGGCGCAGGG [hsa-miR-877-5p] | 54.7 | -6.88 | 10.3 |
| GUAGAUUCUCCUUCUAUGAGUA [hsa-miR-376a-5p] | 24.5 | -7.97 | 11.8 |
| GUAGCACCUUGCAGGAUAAGGU [hsa-miR-5682] | 72.9 | -21.5 | 12.2 |
| GUAGGGGAGGUUGGGCCAGGGA [hsa-miR-6824-5p] | 78.1 | -25.3 | 39.2 |
| GUAGGGGCGUCCCGGGCGCGCGGG [hsa-miR-6789-5p] | 77.1 | -25.6 | 28.1 |
| GUAGGUGACAGUCAGGGGCGG [hsa-miR-6800-5p] | 33.9 | 1.11 | -0.87 |
| GUAUACACCUGAUAUGUGUAUG [hsa-miR-4789-5p] | 67.5 | -15.8 | 17.3 |
| GUCACUGAUGUCUGUAGCUGAG [hsa-miR-4420] | 87.4 | -18.2 | 1.76 |
| GUCAUACACGGCUCUCCUCUCU [hsa-miR-485-3p] | 54.4 | -9.37 | -1.94 |
| GUCCACUUCUGCCUGCCCUGCC [hsa-miR-4436b-5p] | 51.1 | -10.1 | -0.992 |
| GUCCAGUUUUCCCAGGAAUCCCU [hsa-miR-145-5p] | 70.4 | -4.84 | -1.55 |
| GUCCCUCUCCAAAUGUGUCUUG [hsa-miR-642a-5p] | 120 | -27.9 | 55.6 |
| GUCCCUGAGUGUAUGUGGUG [hsa-miR-670] | 47.5 | -27.4 | 48 |
| GUCCGCUCGGCGGUGGCCCA [hsa-miR-572] | 96 | -16.2 | -5.13 |
| GUCCUAGGAGGCUCCUCUG [hsa-miR-5571-3p] | 66.3 | 6.57 | -30 |
